Drawing on publication PMC12432433, this text covers fraction of sample in peak 1 (tetramer) and stoichiometry N for two substances.

One may read the stoichiometry N as the number of molecules, sites or subunits per partner or assembly.

Assay [1] addresses LbXyn43B/Thr274Ala (Levilactobacillus brevis DSM 1269). The assay can be described thus: SEC-MALS; OMNISEC multi-detection SEC: Superdex 200 Increase 10/300 GL, light scattering (RALS 90°, LALS 7°), refractive index, viscometer, UV/VIS; 50 µL of 4.5 mg/mL injected in triplicate; 50 mM sodium phosphate, pH 7, 150 mM NaCl; 0.5 mL/min.
The target is the same in assay [2]. Briefly: SEC; Sephacryl S-300 (110 mL), 0.1 mL/min, 50 mM sodium phosphate, 150 mM NaCl, pH 7.0; calibrated with molecular weight standards of 20-700 kDa; apparent molecular mass. Background: SEC sorts molecules by how far they enter the pores of the column.
Assay [3] deals with β-D-xylosidase LbXyn43B from Levilactobacillus brevis DSM1269 (Levilactobacillus brevis DSM 1269). The assay can be described thus: SEC-MALS; OMNISEC multi-detection SEC: Superdex 200 Increase 10/300 GL, light scattering (RALS 90°, LALS 7°), refractive index, viscometer, UV/VIS; 50 µL of 4.5 mg/mL injected in triplicate; 50 mM sodium phosphate, pH 7, 150 mM NaCl; 0.5 mL/min.
For assay [4] the target is unchanged. Briefly: SEC; Sephacryl S-300 (110 mL), 0.1 mL/min, 50 mM sodium phosphate, 150 mM NaCl, pH 7.0; calibrated with molecular weight standards of 20-700 kDa; apparent molecular mass.
For assay [5] the target is unchanged. The assay can be described thus: crystal structure; X-ray, 1.9 Å, space group P 1 21 1, four chains (A-D); crystals from 27-29% PEG 1500, 60-140 mM malonate-imidazole-borate buffer, pH 4.0-4.5, 4°C.

In assay [1], LbXyn43B/Thr274Ala (enzyme) came in with a fraction of sample in peak 1 (tetramer) of 91.3% and a stoichiometry N of 4. In assay [2], the stoichiometry N worked out at 3.

The substance “β-D-xylosidase LbXyn43B from Levilactobacillus brevis DSM1269 (enzyme)” gave a fraction of sample in peak 1 (tetramer) in assay [3] of 84.9%. Also, the stoichiometry N in assay [3], in assay [4] and in assay [5] was 4 in each case.
